Biological target: the molecule itself
Test: SEC; HiPrep 16/60 Sephacryl S-100 HR; proteins incubated in PBS overnight at 4 °C before dilution in column buffer (50 mM sodium phosphate, 150 mM sodium chloride, pH 7.2); 0.8 mL/min; monomer and dimer

B1: Recombinant I. scapularis AKR/SUB (natural protein)
chain: not shown
notes: Akirin/Subolesin (AKR/SUB), Ixodes scapularis, Q4VRW2; also called Subolesin; tick SUB; source: Escherichia coli, Champion pET101 Directional TOPO Expression kit, as previously described [34,35]
- stoichiometry N: 2

Source: article PMC7157757, “A Novel Combined Scientific and Artistic Approach for the Advanced Characterization of Interactomes: The Akirin/Subolesin Model” (Vaccines, 2020)
